The series concerns the molecule itself. The series is described as follows: gel filtration (Superdex 200); elution volume against monomer, dimer and tetramer standards.

B1: monomeric eqFP611 variant as set forth in SEQ ID No. 1 (mRuby) (other)
chain: MNSLIKENMRMKVVLEGSVNGHQFKCTGEGEGNPYMGTQTMRIKVIEGGPLPFAFDILATSFMYGSRTFIKYPKGIPDFFKQSFPEGFTWERVTRYEDGGVITVMQDTSLEDGCLVYHAQVRGVNFPSNGAVMQKKTKGWEPNTEMMYPADGGLRGYTHMALKVDGGGHLSCSFVTTYRSKKTVGNIKMPGIHAVDHRLERLEESDNEMFVVQREHAVAKFAGLGGG
notes: not shown: N-terminal poly-His tag from the pQE-32 vector
On to B1, for which the binding result was “no binding (tested: 4-30 mg/ml (0.16-1.2 mM))”.

These data come from patent publication US20120107244A1 (UNIVERSIT T ULM, published 2012).
